Experiments:
recombinant hMCAM-His [1] = biological target: T1, recombinant hMCAM-His (human, UniProt P43121 24-559); test: ForteBio Octet Red, hMCAM-His analyte; Expt. #1; vs rodent 1749
T1 construct: not shown: His tag
T1 chain: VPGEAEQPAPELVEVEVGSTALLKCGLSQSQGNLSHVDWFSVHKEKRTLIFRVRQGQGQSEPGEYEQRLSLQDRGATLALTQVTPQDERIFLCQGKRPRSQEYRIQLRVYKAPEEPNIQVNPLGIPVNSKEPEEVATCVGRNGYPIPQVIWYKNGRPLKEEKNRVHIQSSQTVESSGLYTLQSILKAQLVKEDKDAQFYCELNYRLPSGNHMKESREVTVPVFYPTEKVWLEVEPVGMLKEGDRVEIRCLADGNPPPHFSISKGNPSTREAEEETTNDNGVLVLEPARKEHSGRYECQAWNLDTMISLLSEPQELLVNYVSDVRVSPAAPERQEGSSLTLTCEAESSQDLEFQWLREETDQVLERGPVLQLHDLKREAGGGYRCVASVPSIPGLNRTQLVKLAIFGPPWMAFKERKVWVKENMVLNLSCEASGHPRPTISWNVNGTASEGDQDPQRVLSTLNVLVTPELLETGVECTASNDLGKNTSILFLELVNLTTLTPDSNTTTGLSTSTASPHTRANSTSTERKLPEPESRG
Description: The affinities were measured using the ForteBio Octet Red. Anti-human Fc sensors were used to capture the humanized antibodies, and several concentrations of hMCAMHis analyte were used to determine the affinity using a 1:1 fitting model.

recombinant hMCAM-His [2] = biological target: T1, recombinant hMCAM-His; test: competitive ELISA on hMCAM-His, competitor biotinylated rodent or chimeric 1749; vs rodent 1749
[3] = biological target: T2, human MCAM (melanoma cell adhesion molecule) expressed on transfected CHO cells (human, UniProt P43121 24-646); test: flow cytometry, human MCAM CHO cells preincubated with antibody, competitor recombinant human laminin 411 at 20 ug/ml
T2 construct: also called hMCAM; CD146
T2 chain: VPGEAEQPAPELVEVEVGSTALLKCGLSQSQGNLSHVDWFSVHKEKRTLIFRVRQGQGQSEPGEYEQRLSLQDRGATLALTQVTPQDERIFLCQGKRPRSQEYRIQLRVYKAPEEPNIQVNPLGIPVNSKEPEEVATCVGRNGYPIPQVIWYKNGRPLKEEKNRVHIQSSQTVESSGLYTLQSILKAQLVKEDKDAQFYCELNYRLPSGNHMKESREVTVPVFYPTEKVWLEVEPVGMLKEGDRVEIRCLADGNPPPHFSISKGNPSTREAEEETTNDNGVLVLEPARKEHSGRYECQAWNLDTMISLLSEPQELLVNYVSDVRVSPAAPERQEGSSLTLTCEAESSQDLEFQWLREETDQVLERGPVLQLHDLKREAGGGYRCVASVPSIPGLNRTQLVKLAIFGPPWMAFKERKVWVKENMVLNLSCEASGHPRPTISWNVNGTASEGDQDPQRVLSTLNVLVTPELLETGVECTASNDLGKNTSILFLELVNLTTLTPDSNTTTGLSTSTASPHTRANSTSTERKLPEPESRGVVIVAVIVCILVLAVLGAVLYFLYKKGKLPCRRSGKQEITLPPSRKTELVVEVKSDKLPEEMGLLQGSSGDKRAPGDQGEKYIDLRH
Description: The 87 independent mouse fusion clones and 26 independent rat fusion clones described in Example 10 above as being capable of (i) binding to human MCAM, and (ii) blocking the interaction between human MCAM and the α-4 chain of laminin were further characterized as follows. First, IC50 quantitation for the ability of the monoclonal antibody to block the binding of human MCAM to the α-4 chain of laminin was determined as follows. CHO cells expressing human MCAM were incubated with an anti-human MCAM antibody (at various concentrations) for 30 minutes at 4 degrees Celsius. […] Unbound laminin was then washed away, and the laminin bound to the surface of the cells was detected with fluorescently labeled anti-laminin antibodies. After washing, the amount of laminin bound to the surface was detected by flow cytometry, and IC50s were calculated based on the mean fluorescent intensity.
These six anti-MCAM monoclonal antibody clones are herein referred to as (i) the mouse anti-human MCAM monoclonal clones 1174.1.3, 1414.1.2, 1415.1.1, and 1749.1.3, and (ii) the rat anti-human MCAM monoclonal antibody clones 2120.4.19 and 2107.4.10. […] As such, each of these specific monoclonal antibodies was very capable of binding to human MCAM and inhibiting the interaction of cell-expressed human MCAM with its α-4 laminin binding ligand.

recombinant hMCAM-His [4] = biological target: T1, recombinant hMCAM-His; test: competitive ELISA on hMCAM-His, competitor biotinylated rodent or chimeric 1749; Expt. #2; vs rodent 1749
Description: ELISA plates were coated with recombinant hMCAM-His, and blocked with casein buffer to prevent non-specific binding. Biotinylated rodent or chimeric antibody was added at a subsaturating concentration, in the presence or absence of 3× increasing concentrations of unlabeled competitor (humanized antibody, rodent, or chimeric). After washing to remove unbound antibody, streptavidin HRP was added to allow detection of the biotinylated antibody. The ELISA was developed with TMB substrate and the OD450 was measured. The IC50 of the unlabeled competitor was determined using the GraphPad Prism5 software.

fold over rodent (Forte affinity) (recombinant hMCAM-His [1]): 1 fold
fold over rodent (competitive ELISA) (recombinant hMCAM-His [2]): 1 fold
IC50 [3]: 0.545 µg/mL
fold over rodent (competitive ELISA) (recombinant hMCAM-His [4]): 1 fold
B1: mouse anti-human MCAM monoclonal antibody clone 1749.1.3 (antibody, V domains shown)
VH: DVKLVESGGDLVKPGGSLKLSCAASGFTFSSYIMSWVRQTPEKRLEWVATISSGGSSTYYPDSVKGRFTISRDNAKNTLYLQMSSLKSEDTAMYYCTRDDDYDVKVFAYWGQGTLVTVSA
VL: DIVMSQSPSSLAVSAGEKVTMNCKSSRSLLNSRIRKNYLAWYQQKPGQSPKLLIYWASTRESGVPDRFTGSGSGTDFTLTISSVQAEDLAVYYCKQSYNLLTFGAGTKLELK
notes: mouse hybridoma antibody; also called rodent 1749; murine 1749.1.3 anti-MCAM antibody
